{
  "source": "patent US20170002083A1",
  "about": "(KYMAB, published 2017)",
  "binders": {"B1": {"name": "19H01 (hybridoma) (antibody, V domains shown)", "VH": "not shown", "VL": "DIQMTQSPSSLSASVGDRVTITCRASQGISNYLAWYQQKPGKIPKLLIYAASTLQSGVPSRFSGSGSGTDFTLTISSLQPEDVATYYCQKYNSAPRTFGQGTKVEIK"}, "B2": {"name": "9H04 (hybridoma) (antibody, V domains shown)", "VH": "QVQLVESGGGLVKPGGSLRLSCAASRFTLSDYYMTWIRQAPGKGLEWVSYISSSGNTIYYADSVKGRFTISRDNAKNSLYLQMNSLRAEDTAVYYCARDLSGSYWDYYYGMDVWGQGTTVTVSS", "VL": "AIQLTQSPSSLSTSVGDRVTIACRASQGINNALAWYQQKPGKAPKLLIYDASSLESGVPSRFSGSGSGTDFTLTISSLQPEDFATYYCQQFNSYPRTFGQGTKVEIK", "notes": "also called 09H04"}, "B3": {"name": "2D10 (human) (antibody, human IgG4 S228P, kappa, V domains shown)", "VH": "EVQLVESGGGLVQPGGSLRLSCAASGFTFSNYAMNWVRQAPGKGLEWVSTISGSGGATRYADSVKGRFTISRDNSRNTVYLQMNSLRVEDTAVFYCTKDRLIMATVRGPYYYGMDVWGQGTTVTVSS", "VL": "DIQMTQSPSSLSASVGDRVTITCRASQSISSYLNWYQQKPGKAPNLLIYAASSLQSGVPSRFSGSGSETDFTLTISSLQPEDFATYYCQQSHSVSFTFGPGTKVDIKR", "notes": "also called 02D10; 02D10 IgG4-PE"}, "B4": {"name": "2D10 (hybridoma) (antibody, V domains shown)", "VH": "B3 VH", "VL": "DIQMTQSPSSLSASVGDRVTITCRASQSISSYLNWYQQKPGKAPNLLIYAASSLQSGVPSRFSGSGSETDFTLTISSLQPEDFATYYCQQSHSVSFTFGPGTKVDIK", "notes": "Kappa light chain; also called 02D10"}, "B5": {"name": "10A07 (human) (antibody, human IgG4 S228P, kappa, V domains shown)", "VH": "EVQLVESGGVLVQPGGSLRLSCAASGFTFSSYIMTWVRQAPGKGLEWVSGISGSGGGTYYADSMKGRFTISRDNSKNTLYLQMNSLRVEDTAVYYCAKDRLGPITLVRGGYYYGMDVWGQGTTVTVSS", "VL": "DIQMTQSPSSLSASVGDRVTITCRASQSISDYLNWYQQKPGKAPKFLIYAASSLQSGVPSRFSGSGSGTDFTLTVSSLQPEDFATYYCQQSYSTPRTFGQGTRVEIKR", "notes": "also called 10A7; 10A07 IgG4PE"}, "B6": {"name": "10A07 (hybridoma) (antibody, V domains shown)", "VH": "B5 VH", "VL": "DIQMTQSPSSLSASVGDRVTITCRASQSISDYLNWYQQKPGKAPKFLIYAASSLQSGVPSRFSGSGSGTDFTLTVSSLQPEDFATYYCQQSYSTPRTFGQGTRVEIK", "notes": "Kappa light chain; also called 10A7; mAb 10A7"}},
  "key": {"[1]": {"target": "T1, Recombinant Human OX40L (Leader sequence, Isoleucine Zipper and FLAG Sequence Included) (human)", "T1 construct": "also called hOX40L; recombinant hOX40L", "T1 sequence (chain, as listed by the source limits assumed)": "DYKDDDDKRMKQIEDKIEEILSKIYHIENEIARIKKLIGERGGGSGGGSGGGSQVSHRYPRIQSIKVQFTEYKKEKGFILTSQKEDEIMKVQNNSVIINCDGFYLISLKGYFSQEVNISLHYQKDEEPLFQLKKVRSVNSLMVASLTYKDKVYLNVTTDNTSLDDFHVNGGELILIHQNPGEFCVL", "assay": "SPR (ProteOn XPR36), antibody captured on anti-mouse IgG, hOX40L at a single concentration of 256 nM, 1:1 model, apparent affinity, 25 C", "protocol": "(§1) SPR analysis was carried out using the ProteOn™ XPR36 Array System (BioRad). Anti-mouse IgG (GE Healthcare BR-1008-38) was immobilised on a GLM biosensor surface using amine coupling, the surface was then blocked using 1 M ethanolamine. Test antibodies were captured on this surface and recombinant hOX40L (human and rhesus) were used at a single concentration of 256 nM, binding sensorgrams were double referenced using a buffer injection (i.e. 0 nM) to remove baseline drift and injection artefacts. Apparent affinities for the OX40L-antibody interaction were determined using the 1:1 model inherent to the ProteOn XPR36 analysis software. The assay was run using HBS-EP (Teknova) as running buffer and carried out at 25° C."}, "[2]": {"target": "T2, Recombinant Rhesus OX40L (Leader Sequence, FLAG and Isoleucine zipper included) (Rhesus (Macaca mulatta))", "T2 construct": "also called RhsOX40L; Rhesus monkey OX40L", "T2 sequence (chain, as listed by the source limits assumed)": "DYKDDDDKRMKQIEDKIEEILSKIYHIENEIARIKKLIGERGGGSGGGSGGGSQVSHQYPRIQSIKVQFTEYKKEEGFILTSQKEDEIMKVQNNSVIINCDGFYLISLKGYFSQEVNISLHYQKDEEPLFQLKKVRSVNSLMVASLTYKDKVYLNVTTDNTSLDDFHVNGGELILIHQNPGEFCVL", "assay": "SPR (ProteOn XPR36), rhesus OX40L at 256 nM, apparent affinity; CNROR = Cannot resolve off-rate"}, "[3]": {"target": "T1, Recombinant Human OX40L (Leader …)", "assay": "HTRF ligand/receptor neutralisation, biotinylated hOX40L, competitor OX40RFc-AF647; mean of three experiments, SEM +/-0.04", "protocol": "(§2) In order to determine whether recombinantly expressed fully human purified IgG inhibit human OX40L binding to OX40RFc the following method was carried out. Fully human purified IgG or other inhibitor were tested in order to establish the clone potency as measured by IC₅₀ values in the assay. Antibodies recombinantly expressed and purified were titrated by diluting in HTRF assay buffer and 5 μL of this titration transferred to a white 384 well low volume non-binding surface polystyrene plate (Greiner). Biotinylated OX40L was diluted in HTRF assay buffer to a working concentration of 2.4 nM and 5 μL added. OX40RFc directly labelled with AF647 was then diluted to working concentration of 10 nM and 5 μL added. Non-specific binding was defined by replacing OX40RFc-AF647 with assay buffer or HMM. […] Plates were covered, protected from light and incubated at room temperature for 3 hrs prior to reading time resolved fluorescence at 620 nm and 665 nm emission wavelengths using an EnVision plate reader (Perkin Elmer). Data were analysed by calculating delta F as described in Equation 4 and percentage of receptor for each sample according to Equation 5 or in some cases Equation 6. IC₅₀ values were determined using GraphPad Prism software by curve fitting using a four-parameter logistic equation (Equation 7) (FIG. 1)."}, "[4]": {"target": "T1, Recombinant Human OX40L (Leader …)", "assay": "HTRF ligand/receptor neutralisation: biotinylated hOX40L with OX40RFc-AF647, antibody titrated; readout is % of receptor binding", "protocol": "as §2"}, "[5]": {"target": "T2, Recombinant Rhesus OX40L (Leader …)", "assay": "SPR (ProteOn XPR36), antibody captured, rhesus OX40L at 256 nM, apparent affinity; CNROR = Cannot resolve off-rate", "protocol": "as §1"}, "[6]": {"target": "T1, Recombinant Human OX40L (Leader …)", "assay": "HTRF ligand/receptor neutralisation, biotinylated hOX40L, competitor OX40RFc-AF647; mean of three experiments, SEM +/-0.17", "protocol": "as §2"}},
  "data": [
    {"binder": "B1", "values": [
      {"measurement": "Kd", "setting": "[1]", "result": 2.2, "unit": "nM"}
    ]},
    {"binder": "B2", "values": [
      {"measurement": "Kd", "setting": "[1]", "result": 5.3, "unit": "nM"}
    ]},
    {"binder": "B3", "values": [
      {"measurement": "binding result", "setting": "[2]", "result": "binds"},
      {"measurement": "IC50", "setting": "[3]", "result": 0.75, "unit": "nM"},
      {"measurement": "IC50 (read off the curve)", "setting": "[4]", "result": "~0.8", "unit": "nM"}
    ]},
    {"binder": "B4", "values": [
      {"measurement": "binding result", "setting": "[5]", "result": "binds"}
    ]},
    {"binder": "B5", "values": [
      {"measurement": "binding result", "setting": "[2]", "result": "binds"},
      {"measurement": "IC50", "setting": "[6]", "result": 1.2, "unit": "nM"},
      {"measurement": "IC50 (read off the curve)", "setting": "[4]", "result": "~1", "unit": "nM"}
    ]},
    {"binder": "B6", "values": [
      {"measurement": "binding result", "setting": "[5]", "result": "binds"}
    ]}
  ]
}
